This is an account of results in paper PMC12578283 (Protein & Cell, 2025).

Test [1] deals with p15 protein of African swine fever virus (African swine fever virus) (UniProt Q65179). The experiment in a line: cryo-EM structure.
For test [2], the target named is p15 protein of African swine fever virus (African swine fever virus, UniProt Q65179). The experiment in a line: SPR. The settings on record: both partners purified.
Test [3] concerns the target T1, p15 protein of African swine fever virus (African swine fever virus, UniProt Q65179 1-158).
T1 chain: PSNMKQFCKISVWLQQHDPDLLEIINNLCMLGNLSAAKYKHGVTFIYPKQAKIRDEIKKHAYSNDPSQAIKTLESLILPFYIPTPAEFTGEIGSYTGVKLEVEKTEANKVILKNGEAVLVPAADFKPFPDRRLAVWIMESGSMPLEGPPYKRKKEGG
The experiment in a line: SPR.

“And” between values parts separate entries of the source, which are not always exact repeats. Identical values can stand only once.

Regarding “p15 protein of African swine fever virus (from UniProt Q65179 1-158) (natural protein)”, in test [1], the stoichiometry N (usually a count of units in the complex or per binding partner) is 3 and 6.

B1: monoclonal antibody 4E2 (antibody, V domains shown)
VH: QVQLHQPGSVLVRPGASVKLSCKASGYTFTSSWMHWAKQRPGQGLEWIGEIHPKSGNTNYNENFKGKATLTVDTSSSTAYVDLSSLASEDSAVYYCARSGGTYYYAMDSWGQGTSVTVSS
VL: DIQMTQTTSSLSASLGDRVTISCRASQDTSNYLNWYQQKPDGTVKLLIYYTSRLHSGVPSRFSGSGSGTDFSLTINTLEQEDFATYFCQQGNTSPYTFGGGTKLEIK
For the molecule B1, the affinity in test [2], expressed as Kd, was 6.39 nM. Moreover, the off-rate constant (koff) (usually a measure of how fast the partners let go of each other) in test [3] came out at 0.000503 s⁻¹.
